# ± gives the standard error. For some of these results: This sample holds only a part of the variants without activity.
# B1: glmS ribozyme (parent)
# chain: AUAAAAGCGCCAGAACUACAGAAAUGUAGUUGACGAGGAGGAGGUUUAUCGAAUUUUCGGCGGAUGCCUCCAAA
# Assays:
# Conditions in all cases: with glucosamine-6-phosphate
# glucosamine-6-phosphate [1] = variants of: B1; assay: kcat; higher = faster cleavage; RNA array
# In short: (§1)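 Barcoded ribozyme variants on sequenced MiSeq chips were transcribed in situ by E. coli RNA polymerase and followed at 37 °C through a hybridised Cy3 probe. Glucosamine-6-phosphate at 40 μM to 10 mM in HEPES/KCl/Mg(OAc)2 buffer was flowed in, and tiles were imaged over ~14 h. Signals were normalised to baseline and to non-cleaving reference variants, and per-tile medians were fit to one- or two-exponential decays to give kobs. Weighted Michaelis–Menten fits across concentrations gave kcat and KM.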
# glucosamine-6-phosphate [2] = variants of: B1; assay: self-cleavage kobs at 640 uM GlcN6P; higher = faster cleavage; RNA array
# In short: as §1
# glucosamine-6-phosphate [3] = variants of: B1; assay: KM; higher = weaker cofactor use; RNA array
# In short: as §1
# glucosamine-6-phosphate [4] = variants of: B1; assay: self-cleavage kobs at 40 uM GlcN6P; higher = faster cleavage; RNA array
# In short: as §1
# glucosamine-6-phosphate [5] = variants of: B1; assay: self-cleavage kobs at 160 uM GlcN6P; higher = faster cleavage; RNA array
# In short: as §1
# glucosamine-6-phosphate [6] = variants of: B1; assay: self-cleavage kobs at 2500 uM GlcN6P; higher = faster cleavage; RNA array
# In short: as §1
# glucosamine-6-phosphate [7] = variants of: B1; assay: self-cleavage kobs at 10000 uM GlcN6P; higher = faster cleavage; RNA array
# In short: as §1
Variant,kcat (glucosamine-6-phosphate [1]) [s⁻¹],self-cleavage kobs at 640 uM GlcN6P (glucosamine-6-phosphate [2]) [s⁻¹],KM (glucosamine-6-phosphate [3]) [µM],self-cleavage kobs at 40 uM GlcN6P (glucosamine-6-phosphate [4]) [s⁻¹],self-cleavage kobs at 160 uM GlcN6P (glucosamine-6-phosphate [5]) [s⁻¹],self-cleavage kobs at 2500 uM GlcN6P (glucosamine-6-phosphate [6]) [s⁻¹],self-cleavage kobs at 10000 uM GlcN6P (glucosamine-6-phosphate [7]) [s⁻¹]
G38A U45A,< 1e-05,< 1e-05,–,–,–,–,–
A39U C67G,0.00521 ± 0.0013,0.00221 ± 0.00032,1290 ± 420,0.000162 ± 1.8e-05,0.000514 ± 7.5e-05,0.00196 ± 0.00069,0.00516 ± 0.00068
G44U U45G,0.0224 ± 0.0018,0.0033 ± 0.00046,3420 ± 360,0.000269 ± 4.1e-05,0.00106 ± 0.00018,0.00801 ± 0.0035,0.017 ± 0.0022
U56C C67A,4.27e-05 ± 1.5e-06,–,701 ± 180,–,–,3.57e-05 ± 1.4e-05,3.95e-05 ± 7.5e-06
A6U C71G,3.27e-05 ± 8.4e-06,5.72e-05 ± 1.3e-05,–,–,–,2.85e-05 ± 1e-05,2.69e-05 ± 8e-06
G38U C68G,0.000246 ± 5.7e-05,0.000294 ± 4.2e-05,108 ± 52,6.28e-05 ± 1e-05,0.000349 ± 0.00017,–,0.000182 ± 4e-05
G44A A53U,0.000232 ± 3.9e-05,5.47e-05 ± 1.1e-05,1820 ± 680,–,–,0.000174 ± 2.8e-05,0.000182 ± 2.7e-05
A14C C16U,0.00104 ± 0.00016,0.000451 ± 4.8e-05,922 ± 250,5.34e-05 ± 1.1e-05,0.000144 ± 1.9e-05,0.000655 ± 7.7e-05,0.00118 ± 0.00016
G41U A42C,1.89e-05 ± 1.4e-06,–,2750 ± 590,< 1e-05,< 1e-05,–,–
A52G U54G,0.00117 ± 0.00021,0.000183 ± 2.3e-05,3060 ± 840,–,6.71e-05 ± 1.6e-05,0.000616 ± 8.2e-05,0.000855 ± 0.00012
G44U U65G,0.000347 ± 2.4e-05,–,–,–,–,5.71e-05 ± 1.8e-05,0.000152 ± 2.6e-05
U57A,0.000404 ± 1.3e-05,6.91e-05 ± 1.6e-06,3120 ± 170,–,2.27e-05 ± 2.2e-06,0.000175 ± 4e-06,0.000311 ± 6.3e-06
G13C U56G,0.000107 ± 9.4e-06,–,2860 ± 820,–,–,5.37e-05 ± 1.7e-05,8.26e-05 ± 1.2e-05
A48G U56G,7.92e-05 ± 1.9e-06,–,696 ± 110,< 1e-05,–,6.4e-05 ± 1.3e-05,7.35e-05 ± 8.9e-06
